Molecular target: T1, MBP fusion protein of the carboxyl-terminal domain of Gle1 (MBP-Gle1C; amino acid residues 244-611)
T1 chain: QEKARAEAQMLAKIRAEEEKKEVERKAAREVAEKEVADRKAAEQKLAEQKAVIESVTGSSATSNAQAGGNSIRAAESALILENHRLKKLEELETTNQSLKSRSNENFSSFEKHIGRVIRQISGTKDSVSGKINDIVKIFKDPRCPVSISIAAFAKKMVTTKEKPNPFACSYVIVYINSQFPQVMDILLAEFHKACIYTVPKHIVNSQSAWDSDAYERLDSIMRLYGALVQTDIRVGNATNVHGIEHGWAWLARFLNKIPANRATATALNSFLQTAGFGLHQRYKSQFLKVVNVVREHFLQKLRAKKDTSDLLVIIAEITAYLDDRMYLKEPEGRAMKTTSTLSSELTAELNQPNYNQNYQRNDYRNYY

B1: 6x-histidine-fused LOS4 (LOS4-His) (protein)
chain: MADTVEKVPTVVESSSSSTVEASNSAEKTEPTTEKKKWGDVEDDDDEEEAVSELNSLSIKEEEKPDSILEEPEDSNIKAVTSGDTPYTSASRFEDLNLSPELMKGLYVEMKFEKPSKIQAISLPMIMTPPHKHLIAQAHNGSGKTTCFVLGMLSRVDPTLREPQALCICPTRELANQNMEVLQKMGKFTGITAELAVPDSTRGAPAATRGAPVSAHVVIGTPGTLKKWMAFKRLGLNHLKILVFDEADHMLATDGFRDDSLKIMKDIGRVNPNFQVLLFSATFNETVKDFVARTVKDPNQLFVKREDLALDSVKQYKVVCPKEQNKIEVIKDQIMELGDIGQTIIFVKTKASAQKVHKALAEMGYDVTSVHGNLTESDRDKIVKEFKECLTQVLIATDVIARGFDQQRVNLVVNYNLPTKYETGEPDYEVYLHRVGRAGRFGRKGAVFNLLLDDGWDKEVMEKIEKYFEANVKEIKSWNSEEEYKSALKEAGLLDEHHHHHH
Question: How did the “apparent kcat of LOS4-His with MBP-Gle1C (2 µM MBP-Gle1C, 1 µM LOS4-His)” value turn out when B1 was run?
Answer: The value was “the apparent kcat values for LOS4-His alone and LOS4-His with MBP-Gle1C were calculated to be 0.267 and 0.565 sec^-1, respectively”.

Question: What about the “fold increase in the overall catalytic rate of LOS4 (kcat against LOS4-His alone, 0.267 sec^-1)” value of the same protein?
Answer: The value was “an approximately two-fold increase in the overall catalytic rate of LOS4 by Gle1”.

Source: patent US20180119166
